One test has as its system ERK. The test can be described thus: Western blot of ERK phosphorylation in RT-HCEpiC. Type of test: cell-based, human. To be noted: 10 ng/mL for 10 minutes. How it is done: (§1) Human corneal epithelial cells (HCEpiC) were treated with 10% PEG-3350 in serum-free media over the course of 16 hours in an attempt to understand the molecular mechanisms behind the observed positive effect on corneal re-epithelization. Cell lysates were collected and assessed for protein activation by western blot using antibodies targeting key phosphorylation sites.
(§2) FIG. 11 is a graphical representation of peak phosphorylation time points for pAkt, pERK, and pEGFR. […] Cell lysates were collected and assessed for protein activation by western blot using antibodies targeting key phosphorylation sites. […] Ratio of phosphorylated protein to total, non-phosphorylated was quantified by densitometry.
(§3) RT-HCEpiC cell suspensions (2.5×10^5 cells/ml) were prepared in complete medium with 10% Fetal Bovine Serum (“FBS”) and added to each well of a 6-well plate, 2.5 mL suspension per well. […] Cell lysates were assayed for protein concentration and evaluated for Akt, ERK, EGFR, and PI3K activation by Western blot.
(§4) Culture medium was aspirated from each well and cells were washed with cold, non-sterile PBS twice. […] Cell lysates were assayed for protein concentration and analyzed by western blot. […]
(§5) Western Blot: Analysis of Western blot band density in captured and stored digital images was done using the Quantity One software on the VersaDod MP 4000. Density of bands was quantified. […]
Background: A western blot detects proteins with antibodies after separation by electrophoresis.

For test [1], the system named is Riken human corneal epithelial cell line (RT-HCEpiC). The test can be described thus: Monolayer scratch assay (corneal re-epithelization). Type of test: cell-based. To be noted: 10 ng/mL; 16 hours after wounding. The method, then:
A single horizontal scratch was made to the HCEpiC monolayer. Cells were then incubated with PEG 3350 or HPMC 2910 in basal culture medium. Wound healing was calculated as the difference in the gap width between baseline measurements and after 16-hour incubation and is expressed as percentage gap closure. Bars represent the difference in the gap width between baseline measurements and after 16-hour incubation with treatment groups (n=3); lines on bars represent the standard error of the means. Raw data were analyzed with a one-way ANOVA followed by the Dunnett's Method test. * denotes statistical significance versus vehicle control; p<0.05.
We have developed an in vitro wound healing model using transformed human corneal epithelial cells insulted with a scratch to the monolayer and monitored for growth into the resulting cell-free gap. […]
Cells were examined and photographed after scratch and after 16 hours incubation with treatment to monitor closure of the cell-free gap using a light microscope. The percent closure was determined using the following equation. […]
Comparisons were made between treatment groups and the vehicle controls to determine the effect of the treatment on re-epithelization. […] All data was analyzed utilizing the statistical analysis software JMP (SAS Institute, Cary, N.C.).

The next test relates to Akt. Put plainly: Western blot of Akt phosphorylation in RT-HCEpiC. Type of test: cell-based, human. The settings on record: 10 ng/mL for 10 minutes. How it is done:
as §1, §2, §3, §4, §5

A further test has as its system PI3K. The test can be described thus: Western blot of PI3K phosphorylation in RT-HCEpiC. The class given is cell-based, human. To be noted: 10 ng/mL for 10 minutes. How it is done: as §1
RT-HCEpiC cell suspensions (2.5×10^5 cells/ml) were prepared in complete medium with 10% Fetal Bovine Serum (“FBS”) and added to each well of a 6-well plate, 2.5 mL suspension per well. When cells reached confluence, they were serum starved overnight in basal DMEM/F12. Treatments were delivered in basal medium; treatments include control, 10 ng/mL HB-EGF (Heparin-bi-binding EGF-like growth factor) for 10 minutes; or 10% PEG-3350 for 10, 15, 20, 30 minutes, 1, 2, 4, 6, or 16 hours. Cell lysates were assayed for protein concentration and evaluated for Akt, ERK, EGFR, and PI3K activation by Western blot.
as §4, §5

A further test relates to EGFR. Put plainly: Western blot of EGFR phosphorylation in RT-HCEpiC. The class given is cell-based, human. The settings on record: 10 ng/mL for 10 minutes. How it is done:
as §1, §2, §3, §4, §5

B1: Heparin-binding EGF-like growth factor (protein, UniProt Q99075 63-148, looked up)
Heparin-binding EGF-like …: DLQEADLDLLRVTLSSKPQALATPNKEEHGKRKKKGKGLGKKRDPCLRKYKDFCIHGECKYVKELRAPSCICHPGYHGERCHGLSL
notes: growth factor used as positive assay control
B1: the “phosphorylation of ERK” value with ERK is “substantially increased”. For the same molecule, the “corneal re-epithelization (percent gap closure) versus vehicle control” value in test [1] is recorded as “significantly increased”. Moreover, the “phosphorylation of Akt” value with Akt is on record as “substantially increased”. Moreover, the pPI3K entry with PI3K is given as “no effect”. In the test with EGFR, the “phosphorylation of EGFR” value was “substantially increased”.

The values are drawn from patent publication US20120252756A1, “Pharmaceutical Compositions and Methods for Treating, Controlling, Ameliorating, or Reversing Conditions of the Eye” (priority 2010, published 2012).
